# Reference: article PMC11601603
# Molecular target: Citrobacter sp. RHBSTW-00271 Ubl3 (Citrobacter sp. RHBSTW-00271)
# Test: SEC-MALS
substance,measurement,value
Citrobacter sp. RHBSTW-00271 Ubl3 (domain or fragment),stoichiometry N,2
